Laboratory results published in patent US20110311517A1, “Antibodies and methods for treating estrogen receptor-associated diseases” (SHENOGEN PHARMA GROUP, LTD., priority 2009, published 2011).
Marks after values point to notes of the source that are not given here.

Assays:
[1] = system: Human breast tumor BCAP-37; experiment: Tumor growth inhibition in BCAP-37 tumor-bearing nude mice; format: in vivo, BALB/c-nu nude mice
Excerpt: 49 female BALB/c-nu nude mice (provided by department of laboratory animal science, Peking University Health Science Center) were used in the studies.
(§1) The tested animals were grouped into 7 groups with 7 nude mice in each group. The seven groups are the negative control group treated with human IgG antibody (purchased from Beijing Biosynthesis Biotechnology Co. Ltd.), the positive control group treated with herceptin (provided by Beijing Shenogen pharma group), the multi-clonal antibody test group treated with rabbit anti-ERα36 multi-clonal antibody (provided by Wang, Zhao-Yi group, Creighton University), and the monoclonal antibody test groups treated with human anti-ERα36 monoclonal ScFv1, ScFv3, ScFv4 and ScFv7 respectively.
(§2) The test groups were administered with the same dose of rabbit anti-ERα36 multi-clonal antibody, human anti-ERα36 monoclonal ScFv1, ScFv3, ScFv4 and ScFv7 respectively (5 mg/kg, 100 μg/dose). The positive control group was administered with 5 mg/kg herceptin (100 μg/dose,), and the negative control group was administered with 5 mg/kg IgG antibody (100 μg/dose).
(§3) Human breast tumor BCAP-37 (estrogen receptor positive, provided by department of pharmacology, Institute of Materia Medica, Chinese Academy of Medical Sciences) was implanted subcutaneously into the armpit of the right forelimb of each tested nude mouse. Diethylstilbestrol was administered by gavage with the dose of 7 μg/day for 9 consecutive days after the implantation. On day 10, the mice were grouped into 7 groups and administered with the corresponding drug via intravenous injection, at a dosing interval of 3-4 days, for 6 consecutive doses. Every 3-4 days, the tumor-bearing mice were weighed and their tumor sizes were measured. Parameters were calculated using the following equations:
Volume of Tumor in animals of each group (VT): Vt=½×a×b^2, (Equation 1),
wherein a and b represent the length and width of the tumor, respectively;
wherein V0 is the volume of tumor before drug administration at the time of grouping, Vt is the volume of tumor at each measurement; the calculation method of V0 is the same as that of Vt;
wherein TRTV is the arithmetic mean of RTV of the test groups, and CRTV is the arithmetic mean of RTV of the negative control group.
The tumor bearing mice in each group were terminated after 21 days of observations and drug administrations. The tumors were then excised from the animals, photographed and weighed on 1/10000 analytical balance. The average tumor weights and tumor growth inhibition rates were calculated:
All experimental data were shown in mean±standard deviation. Groups were compared using statistical t test.

[2] = molecular target: T1, ERα36 (Homo sapiens, UniProt P03372); experiment: ELISA of re-natured ScFv binding to ERα36
T1 construct: made in house; host or cells: chemical synthesis (no expression host)
T1 sequence (P03372 284-310 isoform P03372-4 limits assumed): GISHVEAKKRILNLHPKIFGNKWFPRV
Protocol: Streptavidin-coated 96-well plates were washed twice with PBS. Biotinylated ERα36 (final concentration of 20 μg/ml) was added into each testing well. The plates were incubated for 2 h at room temperature and washed three times with PBST. Re-natured ScFv samples (100 μl, S14A1r1, S24A2r2, S33A2r1, S41A3r3, S53A1r1, S66A1r1 and S72A2r1) were added into the testing wells respectively. Each ScFv was diluted five times in five gradients, and two parallel wells were loaded with each ScFv at each gradient. The plates were incubated at 37° C. for 1 h. The plates were washed three times with PBST, followed by addition of 100 μl anti-His-6 mouse monoclonal antibody (1:2000 dilution) per well and 1 h incubation at 37° C. The plates were washed three times with PBST, followed by addition of 100 μl goat anti-mouse-HRP (1:2500 dilution) per well and 1 h incubation at 37° C. The plates were washed six times with PBST, followed by addition of 100 μl OPD to develop under the protection from light. The reactions were terminated by adding 50 μl 2M H2SO4 to each well, and data were collected by microplate reader at 490 nm.
One positive control and three negative controls were performed in parallel. The positive control used rabbit anti-ER multi-clonal antibody serum in replacement of the ScFv re-natured sample and goat-anti-rabbit-HRP in replacement of goat-anti-mouse HRP.

[3] = system: implanted tumors; experiment: Comparison of anti-tumor activity of ScFv-7 with tamoxifen on tumor-bearing nude mice; format: in vivo, BALB/c-nu female nude mice; settings: after 18 days of drug administration
Protocol: BALB/c-nu female nude mice were divided into 3 groups, with 7 mice in each group.
Human anti-ERα36 ScFv-7 was administered at the dose of 0.1 mg/20 g body weight/day. The positive control tamoxifen was administered at the dose of 0.33 mg/20 g body weight/day. The negative control group was administered with human IgG.
The tumor-bearing nude mice were weighed, and the volumes of the implanted tumors were measured every 3-4 days. The relative tumor volumes and tumor growth inhibition rates were calculated using Equation 2 and Equation 4 respectively. Animals received drug administration for 18 days and were terminated 24 h later. The tumors were excised from the animals and weighed. The average tumor weights and tumor growth inhibitions were calculated using Equation 4.

[4] = Body weight and mortality of tumor-bearing nude mice during drug administration; format: in vivo, BALB/c-nu nude mice; settings: mean ± SD
Excerpt: as §1, §2
as §3, with “equations: […]” for “equations:”

[5] = BCAP-37 nude mice, 5 mg/kg i.v. every 3-4 days, 6 doses, mean ± SD
[6] = BCAP-37 nude mice, 5 mg/kg i.v. every 3-4 days, Vt relative to V0, mean ± SD
[7] = ScFv concentration 200.00 μg/ml
[8] = 5 mg/kg i.v. every 3-4 days, 6 doses

B1: ScFv7: fully human anti-ERα36 single chain antibody, SEQ ID NO: 15 (protein)
scFv: QSVLTQPPSVSAAPGQKVTISCSGSSSNIGNNYVSWYQQLPGTAPKLLIYDNNKRPSGIPDRFSGSKSGTSATLGITGLQTGDEADYYCGTWDSSLSAGVFGGGTKLTVLGSGGSTITSYNVYYTKLSSSGTEVQLVQSGGGLVQPGRSLRLSCAASGFTFDDYAMHWVRQAPGKGLEWVSGISWNSGSIGYADSVKGRFTISRDNAKNSLYLQMNSLRAEDTALYYCAKEGDSSGWSPDYWGQGTLVTVSSAS
modifications: scFv7
[1]; [5]
  Tumor volumes, Day 4 after drug administration: 186.11 ± 71.13^a mm^3
  Tumor volumes, Day 7 after drug administration: 308.85 ± 117.52^b mm^3
  Tumor volumes, Day 11 after drug administration: 1521.45 ± 366.24^b mm^3
  Tumor volumes, Day 14 after drug administration: 2136.49 ± 479.95^b mm^3
  Tumor volumes, Day 18 after drug administration: 2944.61 ± 526.75^b mm^3
  Tumor volumes, Day 21 after drug administration: 3358.43 ± 445.13^b mm^3
[1]; [6]
  relative tumor volume (RTV), Day 4: 3.81 ± 1.54^b
  relative tumor volume (RTV), Day 7: 6.45 ± 2.86^b
  relative tumor volume (RTV), Day 11: 31.64 ± 10.24^b
  relative tumor volume (RTV), Day 14: 44.48 ± 13.69^b
  relative tumor volume (RTV), Day 18: 61.54 ± 18.25^b
  relative tumor volume (RTV), Day 21: 70.27 ± 19.61^b
[1]; BCAP-37 nude mice, 5 mg/kg i.v., 6 doses
  inhibition of tumor growth in tumor-bearing mice (in words): strongest inhibitory activities
[1]; baseline, BCAP-37 nude mice, 5 mg/kg i.v. every 3-4 days, 6 doses, mean ± SD
  Tumor volumes, Before drug administration: 50.62 ± 13.32 mm^3
[1]; excised tumors after 21 days
  tumor sizes at pathological examination (in words): the smallest among the mono-clonal antibody groups
[1]; excised tumors after 21 days, BCAP-37 nude mice, 5 mg/kg i.v., 6 doses, mean ± SD
  Tumor weight: 2.860 ± 0.696 g
[1]; from average tumor weights after 21 days vs negative control, 5 mg/kg i.v., 6 doses
  Tumor growth inhibition rate (%): 57.97%
[2]; ScFv concentration 0.32 μg/ml
  OD490 Well1: 0.122
  OD490 Well2: 0.111
[2]; ScFv concentration 1.60 μg/ml
  OD490 Well1: 0.146
  OD490 Well2: 0.155
[2]; ScFv concentration 8.00 μg/ml
  OD490 Well1: 0.171
  OD490 Well2: 0.155
[2]; ScFv concentration 40.00 μg/ml
  OD490 Well1: 0.294
  OD490 Well2: 0.311
[2]; [7]
  OD490 Well1: 0.690
  OD490 Well2: 0.740
[3]
  tumor sizes at pathological examination (in words): significantly smaller than those of the negative group
  tumor volume (VT), relative tumor volume (RVT) and relative tumor growth rate (T/C %) versus negative control group: significantly lower
[3]; ScFv-7 0.1 mg/20 g body weight/day, tamoxifen 0.33 mg/20 g body weight/day
  tumor inhibition rates: around 60%
[3]; p-values below 0.01
  average tumor weights compared with negative group: significant difference
[4]; [8]
  Body weights of tumor-bearing nude mice, Day 4 after drug administration: 20.02 ± 0.51
  Body weights of tumor-bearing nude mice, Day 7 after drug administration: 20.65 ± 0.24
  Body weights of tumor-bearing nude mice, Day 11 after drug administration: 21.34 ± 0.51
  Body weights of tumor-bearing nude mice, Day 14 after drug administration: 22.01 ± 0.52
  Body weights of tumor-bearing nude mice, Day 18 after drug administration: 23.15 ± 0.58
  Body weights of tumor-bearing nude mice, Day 21 after drug administration: 23.52 ± 0.47
[4]; baseline at the time of grouping
  body weight when grouped: 19.67 ± 0.67
[4]; baseline, 5 mg/kg i.v. every 3-4 days, 6 doses
  Body weights of tumor-bearing nude mice, Before drug administration: 19.67 ± 0.67
